Data published in patent US20190062417A1 (SHANGHAI JW INFLINHIX, published 2019).

Biological target: T1, TNF receptors on the surface of L929 cells (mouse (L929 cells), UniProt P25118 30-454)
T1 construct: whole, on cells; the Methods stain with anti-TNFR1; also called cell surface receptors; TNF cell membrane surface receptors
T1 sequence (looked up): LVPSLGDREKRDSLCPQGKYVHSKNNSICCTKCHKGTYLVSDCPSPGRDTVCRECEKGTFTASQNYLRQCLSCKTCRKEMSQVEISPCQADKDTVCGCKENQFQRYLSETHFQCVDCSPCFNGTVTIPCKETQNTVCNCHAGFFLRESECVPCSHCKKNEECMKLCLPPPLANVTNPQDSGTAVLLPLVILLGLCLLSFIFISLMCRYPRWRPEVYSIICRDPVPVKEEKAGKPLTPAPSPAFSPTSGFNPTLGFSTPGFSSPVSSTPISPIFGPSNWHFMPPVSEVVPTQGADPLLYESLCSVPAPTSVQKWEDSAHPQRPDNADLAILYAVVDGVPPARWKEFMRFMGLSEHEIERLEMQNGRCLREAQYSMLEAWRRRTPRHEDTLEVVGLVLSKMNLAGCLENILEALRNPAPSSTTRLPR
Experiment: confocal microscopy on L929 cells, 244-12 alone
Protocol: The cells were fixed with 4% paraformaldehyde (in PBS) for 10 min, blocked in a phosphate-buffer containing 0.5% BSA and 0.1% cold water fish-gelatin for 15min and subsequently incubated with rabbit anti-TNFR1 antibodies (Abcam) for 1 hour. […] PBS-washed specimens were then mounted in Gelvatol/DABCO (Sigma-Aldrich). DNA was counterstained with DAPI (Sigma-Aldrich). All samples were analyzed by fluorescent microscopy using a Nikon Eclipse 80i at 60×. Images were acquired with MS-Elements AR3.0 software using a Hamamatsu camera.

binding result: no binding
B1: monoclonal antibody 244-12 (antibody, mouse IgG2b, kappa, V domains shown)
VH: QIQLVQSGPELKKPGETVKISCKASGYTFTNYGMNWVKQAPGKGLKWMGWINTYTGEPTYADDFKGRFAFSLETSANTAYLQINNLRNEGMATYFCARHYRYAWFPYWGQGTLVTVSA
VL: DIQMTQSPASLSASVGETVTITCRASGNIHIYLAWYQQKQGKSPQLLVYNAKTLADGVPSRFSGSGSGTQYSLKINSLQPEDFGSYYCQHFWSIPWTFGGGTKLEIKR
notes: also called antibody of the present invention
